Measured values taken from patent CN106084048A (UNIV SUN YAT SEN, dated 2016).

B1: 抗CD3单域抗体 C58 (VHH)
VHH: QVQLQESGGGLVQPGGSLRLSCAASGFTLDYYAIGWFRQAPGKEREGVSCISSGDGTTYYADSVKGRFTISRDNAKNTVYLQMNSLKPEDTAVYYCAAARTRKVISIATMTLDPKVFASWGQGTQVTVSS
notes: Llama sdAb from a phage library; Tested as unpurified sdAb-SASA protein in E. coli expression medium / culture supernatant (FASEBA format); 3 in its text; also called sdAb C58; not shown: SASA fusion partner of the pFASEBA vector (sdAb-SASA protein in the expression medium)
B2: 抗CD3单域抗体 C57 (VHH)
VHH: QVQLQESGGGLVQAGDSLRLSCAASGRTFSSYVMGWFRQAPGKEREFVAAIRWSGGSTYYADSVKGRFTISRDNAKNTMYLQMNSLKPEDTAVYYCAAAQKINTDVTGAYWGQGTQVTVSS
notes: Llama sdAb from a phage library; Tested as unpurified sdAb-SASA protein in E. coli expression medium / culture supernatant (FASEBA format); 1 in its text; also called sdAb C57; not shown: SASA fusion partner of the pFASEBA vector (sdAb-SASA protein in the expression medium)

Legend:
CD3 on Jurkat cells [1] = molecular target: CD3 on Jurkat cells (UniProt P07766); assay: flow cytometry, culture supernatant on Jurkat cells (negative control)
CD3-His蛋白(MP-5) = molecular target: T1, CD3-His蛋白(MP-5) (UniProt P07766 23-126); assay: BLI (Octet RED96), sdAb-SASA from expression medium captured on BSA-coated biosensor, 100 nM CD3 in solution, 1:1 Langmuir fit, 30°C
T1 construct: Immunogen and panning antigen; The Octet method speaks only of 'CD3蛋白' in solution at 100 nM; also called CD3蛋白; not shown: His tag

CD3 on Jurkat cells [2] = molecular target: CD3 on Jurkat cells (UniProt P07766); assay: flow cytometry, culture supernatant on Jurkat cells

T1 sequence (P07766 23-126): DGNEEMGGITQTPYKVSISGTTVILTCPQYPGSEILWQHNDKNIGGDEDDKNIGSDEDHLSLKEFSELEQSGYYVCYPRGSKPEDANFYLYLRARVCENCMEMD

Molecule | MFI (CD3 on Jurkat cells [1]) [MFI] | koff (CD3-His蛋白(MP-5)) [s⁻¹] | MFI (CD3 on Jurkat cells [2]) [MFI]
NC-sdAb(相同形式的非相关性sdAb) (VHH) | 115 |  | 
B1 |  | 3.91e-05 | 245
B2 |  | 4.6e-05 | 213
